These results are taken from patent US20130251724A1 (GlaxoSmithKline, published 2013).

This assay has as its target T1, Human OSM (human, UniProt P13725 26-221).
T1 construct: Recombinant human OSM; also called hOSM; human Oncostatin M
T1 sequence: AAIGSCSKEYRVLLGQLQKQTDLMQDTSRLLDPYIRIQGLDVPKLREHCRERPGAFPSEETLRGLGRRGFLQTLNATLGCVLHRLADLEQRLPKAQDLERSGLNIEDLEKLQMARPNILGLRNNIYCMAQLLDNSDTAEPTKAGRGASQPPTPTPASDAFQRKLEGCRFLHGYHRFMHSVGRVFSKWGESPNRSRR
The assay can be described thus: SPR (ProteOn XPR36 or Biacore T100), captured supernatant, OSM as analyte. As for the experimental part:
The initial kinetic analyses for the CDRH3 screen were carried out on the ProteOn XPR36 (Biorad Laboratories) and certain supernatants were selected for more accurate kinetic analysis on the BiaCore T100.
For the ProteOn analysis, anti-human IgG (GE Healthcare/Biacore BR-1008-39) was coupled to a GLM chip (Biorad Laboratories 176-5012) by primary amine coupling. The CDRH3 variants were captured directly on to this surface and recombinant human OSM was passed over the captured antibody surface at 256, 64, 16, 4 and 1 nM, with a buffer injection alone (i.e. 0 nM) used to double reference the binding curves. Following the OSM binding event, the capture surfaces were regenerated: with 3M MgCl₂ the regeneration removed the previously captured antibody ready for another cycle of capture and binding analysis. The data was then fitted to the 1:1 model (with mass transport) inherent to the ProteOn analysis software. The run was carried out using HBS-EP (Biacore/GE-Healthcare BR-1006-69) and the analysis temperature was 25° C.
A similar method was used for analysis of constructs using the Biacore T100, anti-human IgG (GE Healthcare/Biacore BR-1008-39) was coupled to a CM5 chip (GE Healthcare/Biacore BR-1006-68) by primary amine coupling, antibodies were captured on this surface and recombinant human OSM was passed over the captured antibody surface at 256, 64, 16, 4 and 1 nM, with a buffer injection alone (i.e. 0 nM) used to double reference the binding curves. Regeneration was by using pulses of 3M 3M MgCl₂ or 100 mM phosphoric acid or using both reagents. The data was fitted to the 1:1 model inherent to the Biacore T100 analysis software. The run was carried out using HBS-EP (Biacore/GE-Healthcare BR-1006-69) and the analysis temperature was 25° C.
(Surface plasmon resonance follows binding to a sensor surface in real time, without labels.)

B1: Pos 96 Gly (antibody, V domains shown)
VH: EVQLVESGGGLVQPGGSLRLSCAASGFTFSSYAMSWVRQAPGKGLEWVATISDGGSFTYYLDNVRGRFTISRDNAKNSLYLQMNSLRAEDTAVYYCARDGGHTTFWYFDVWGRGTLVTVSS
VL: DIVMTQSPDSLAVSLGERATINCRASKSVSAAGYNFMHWYQQKPGQPPKVLIYYASNLESGVPDRFSGSGSGTDFTLTISSLQAEDVAVYYCLHSREFPFTFGGGTKVEIKR
notes: also called CDRH3 V96>G
Regarding B1, the affinity, expressed as Kd, was 0.488 nM.

B2: Pos 100C Phe (antibody, V domains shown)
VH: EVQLVESGGGLVQPGGSLRLSCAASGFTFSSYAMSWVRQAPGKGLEWVATISDGGSFTYYLDNVRGRFTISRDNAKNSLYLQMNSLRAEDTAVYYCARDVGHTTFWFFDVWGRGTLVTVSS
VL: DIVMTQSPDSLAVSLGERATINCRASKSVSAAGYNFMHWYQQKPGQPPKVLIYYASNLESGVPDRFSGSGSGTDFTLTISSLQAEDVAVYYCLHSREFPFTFGGGTKVEIKR
notes: also called CDRH3 Y100C>F
Consider B2, for which the Kd (as a rule, the concentration at which binding is half-saturated) was determined as 0.365 nM.

B3: Pos 97 Cys (antibody, V domains shown)
VH: EVQLVESGGGLVQPGGSLRLSCAASGFTFSSYAMSWVRQAPGKGLEWVATISDGGSFTYYLDNVRGRFTISRDNAKNSLYLQMNSLRAEDTAVYYCARDVCHTTFWYFDVWGRGTLVTVSS
VL: DIVMTQSPDSLAVSLGERATINCRASKSVSAAGYNFMHWYQQKPGQPPKVLIYYASNLESGVPDRFSGSGSGTDFTLTISSLQAEDVAVYYCLHSREFPFTFGGGTKVEIKR
notes: also called CDRH3 G97>C
With B3, binding was put at a Kd of 0.651 nM.

B4: Pos 99 Cys (antibody, V domains shown)
VH: EVQLVESGGGLVQPGGSLRLSCAASGFTFSSYAMSWVRQAPGKGLEWVATISDGGSFTYYLDNVRGRFTISRDNAKNSLYLQMNSLRAEDTAVYYCARDVGHCTFWYFDVWGRGTLVTVSS
VL: DIVMTQSPDSLAVSLGERATINCRASKSVSAAGYNFMHWYQQKPGQPPKVLIYYASNLESGVPDRFSGSGSGTDFTLTISSLQAEDVAVYYCLHSREFPFTFGGGTKVEIKR
notes: also called CDRH3 T99>C
In turn, B4 came in with a Kd of 0.708 nM.

B5: Pos 97 Phe (antibody, V domains shown)
VH: EVQLVESGGGLVQPGGSLRLSCAASGFTFSSYAMSWVRQAPGKGLEWVATISDGGSFTYYLDNVRGRFTISRDNAKNSLYLQMNSLRAEDTAVYYCARDVFHTTFWYFDVWGRGTLVTVSS
VL: DIVMTQSPDSLAVSLGERATINCRASKSVSAAGYNFMHWYQQKPGQPPKVLIYYASNLESGVPDRFSGSGSGTDFTLTISSLQAEDVAVYYCLHSREFPFTFGGGTKVEIKR
notes: also called CDRH3 G97>F
In turn, B5 came in with a Kd of 0.637 nM.

B6: Pos 96 His (antibody, V domains shown)
VH: EVQLVESGGGLVQPGGSLRLSCAASGFTFSSYAMSWVRQAPGKGLEWVATISDGGSFTYYLDNVRGRFTISRDNAKNSLYLQMNSLRAEDTAVYYCARDHGHTTFWYFDVWGRGTLVTVSS
VL: DIVMTQSPDSLAVSLGERATINCRASKSVSAAGYNFMHWYQQKPGQPPKVLIYYASNLESGVPDRFSGSGSGTDFTLTISSLQAEDVAVYYCLHSREFPFTFGGGTKVEIKR
notes: also called CDRH3 V96>H
For the molecule B6, binding was put at a Kd of 0.48 nM.

B7: Pos 97 Met (antibody, V domains shown)
VH: EVQLVESGGGLVQPGGSLRLSCAASGFTFSSYAMSWVRQAPGKGLEWVATISDGGSFTYYLDNVRGRFTISRDNAKNSLYLQMNSLRAEDTAVYYCARDVMHTTFWYFDVWGRGTLVTVSS
VL: DIVMTQSPDSLAVSLGERATINCRASKSVSAAGYNFMHWYQQKPGQPPKVLIYYASNLESGVPDRFSGSGSGTDFTLTISSLQAEDVAVYYCLHSREFPFTFGGGTKVEIKR
notes: also called CDRH3 G97>M
B7 registered a Kd of 0.809 nM.

B8: Pos 99 Ala (antibody, V domains shown)
VH: EVQLVESGGGLVQPGGSLRLSCAASGFTFSSYAMSWVRQAPGKGLEWVATISDGGSFTYYLDNVRGRFTISRDNAKNSLYLQMNSLRAEDTAVYYCARDVGHATFWYFDVWGRGTLVTVSS
VL: DIVMTQSPDSLAVSLGERATINCRASKSVSAAGYNFMHWYQQKPGQPPKVLIYYASNLESGVPDRFSGSGSGTDFTLTISSLQAEDVAVYYCLHSREFPFTFGGGTKVEIKR
notes: also called CDRH3 T99>A
Molecule B8 came in with a Kd of 0.541 nM.

B9: Pos 98 Phe (antibody, V domains shown)
VH: EVQLVESGGGLVQPGGSLRLSCAASGFTFSSYAMSWVRQAPGKGLEWVATISDGGSFTYYLDNVRGRFTISRDNAKNSLYLQMNSLRAEDTAVYYCARDVGFTTFWYFDVWGRGTLVTVSS
VL: DIVMTQSPDSLAVSLGERATINCRASKSVSAAGYNFMHWYQQKPGQPPKVLIYYASNLESGVPDRFSGSGSGTDFTLTISSLQAEDVAVYYCLHSREFPFTFGGGTKVEIKR
notes: also called CDRH3 H98>F
As to B9, the Kd was determined as 0.325 nM.

B10: Pos 96 Phe (antibody, V domains shown)
VH: EVQLVESGGGLVQPGGSLRLSCAASGFTFSSYAMSWVRQAPGKGLEWVATISDGGSFTYYLDNVRGRFTISRDNAKNSLYLQMNSLRAEDTAVYYCARDFGHTTFWYFDVWGRGTLVTVSS
VL: DIVMTQSPDSLAVSLGERATINCRASKSVSAAGYNFMHWYQQKPGQPPKVLIYYASNLESGVPDRFSGSGSGTDFTLTISSLQAEDVAVYYCLHSREFPFTFGGGTKVEIKR
notes: also called CDRH3 V96>F
B10 yielded a Kd of 0.61 nM.

B11: Pos 96 Lys (antibody, V domains shown)
VH: EVQLVESGGGLVQPGGSLRLSCAASGFTFSSYAMSWVRQAPGKGLEWVATISDGGSFTYYLDNVRGRFTISRDNAKNSLYLQMNSLRAEDTAVYYCARDKGHTTFWYFDVWGRGTLVTVSS
VL: DIVMTQSPDSLAVSLGERATINCRASKSVSAAGYNFMHWYQQKPGQPPKVLIYYASNLESGVPDRFSGSGSGTDFTLTISSLQAEDVAVYYCLHSREFPFTFGGGTKVEIKR
notes: also called CDRH3 V96>K
Regarding B11, the affinity, expressed as Kd, was 0.671 nM.

B12: Pos 100C Gly (antibody, V domains shown)
VH: EVQLVESGGGLVQPGGSLRLSCAASGFTFSSYAMSWVRQAPGKGLEWVATISDGGSFTYYLDNVRGRFTISRDNAKNSLYLQMNSLRAEDTAVYYCARDVGHTTFWGFDVWGRGTLVTVSS
VL: DIVMTQSPDSLAVSLGERATINCRASKSVSAAGYNFMHWYQQKPGQPPKVLIYYASNLESGVPDRFSGSGSGTDFTLTISSLQAEDVAVYYCLHSREFPFTFGGGTKVEIKR
notes: also called CDRH3 Y100C>G
With B12, the Kd came to 0.388 nM.

B13: Pos 100C Glu (antibody, V domains shown)
VH: EVQLVESGGGLVQPGGSLRLSCAASGFTFSSYAMSWVRQAPGKGLEWVATISDGGSFTYYLDNVRGRFTISRDNAKNSLYLQMNSLRAEDTAVYYCARDVGHTTFWEFDVWGRGTLVTVSS
VL: DIVMTQSPDSLAVSLGERATINCRASKSVSAAGYNFMHWYQQKPGQPPKVLIYYASNLESGVPDRFSGSGSGTDFTLTISSLQAEDVAVYYCLHSREFPFTFGGGTKVEIKR
notes: also called CDRH3 Y100C>E
Take B13: binding was characterised by a dissociation constant (Kd) of 0.482 nM.

B14: Pos 100B Glu (antibody, V domains shown)
VH: EVQLVESGGGLVQPGGSLRLSCAASGFTFSSYAMSWVRQAPGKGLEWVATISDGGSFTYYLDNVRGRFTISRDNAKNSLYLQMNSLRAEDTAVYYCARDVGHTTFEYFDVWGRGTLVTVSS
VL: DIVMTQSPDSLAVSLGERATINCRASKSVSAAGYNFMHWYQQKPGQPPKVLIYYASNLESGVPDRFSGSGSGTDFTLTISSLQAEDVAVYYCLHSREFPFTFGGGTKVEIKR
notes: also called CDRH3 W100B>E
B14 yielded a Kd of 0.491 nM.

B15: Pos 98 Gln (antibody, V domains shown)
VH: EVQLVESGGGLVQPGGSLRLSCAASGFTFSSYAMSWVRQAPGKGLEWVATISDGGSFTYYLDNVRGRFTISRDNAKNSLYLQMNSLRAEDTAVYYCARDVGQTTFWYFDVWGRGTLVTVSS
VL: DIVMTQSPDSLAVSLGERATINCRASKSVSAAGYNFMHWYQQKPGQPPKVLIYYASNLESGVPDRFSGSGSGTDFTLTISSLQAEDVAVYYCLHSREFPFTFGGGTKVEIKR
notes: also called CDRH3 H98>Q
Molecule B15 returned a Kd of 0.729 nM.

B16: Pos 98 Ala (antibody, V domains shown)
VH: EVQLVESGGGLVQPGGSLRLSCAASGFTFSSYAMSWVRQAPGKGLEWVATISDGGSFTYYLDNVRGRFTISRDNAKNSLYLQMNSLRAEDTAVYYCARDVGATTFWYFDVWGRGTLVTVSS
VL: DIVMTQSPDSLAVSLGERATINCRASKSVSAAGYNFMHWYQQKPGQPPKVLIYYASNLESGVPDRFSGSGSGTDFTLTISSLQAEDVAVYYCLHSREFPFTFGGGTKVEIKR
notes: also called CDRH3 H98>A
The molecule B16 returned a Kd of 0.659 nM.

B17: Pos 98 Gly (antibody, V domains shown)
VH: EVQLVESGGGLVQPGGSLRLSCAASGFTFSSYAMSWVRQAPGKGLEWVATISDGGSFTYYLDNVRGRFTISRDNAKNSLYLQMNSLRAEDTAVYYCARDVGGTTFWYFDVWGRGTLVTVSS
VL: DIVMTQSPDSLAVSLGERATINCRASKSVSAAGYNFMHWYQQKPGQPPKVLIYYASNLESGVPDRFSGSGSGTDFTLTISSLQAEDVAVYYCLHSREFPFTFGGGTKVEIKR
notes: also called CDRH3 H98>G
With B17, the Kd was found to be 1.11 nM.

B18: Pos 97 Ala (antibody, V domains shown)
VH: EVQLVESGGGLVQPGGSLRLSCAASGFTFSSYAMSWVRQAPGKGLEWVATISDGGSFTYYLDNVRGRFTISRDNAKNSLYLQMNSLRAEDTAVYYCARDVAHTTFWYFDVWGRGTLVTVSS
VL: DIVMTQSPDSLAVSLGERATINCRASKSVSAAGYNFMHWYQQKPGQPPKVLIYYASNLESGVPDRFSGSGSGTDFTLTISSLQAEDVAVYYCLHSREFPFTFGGGTKVEIKR
notes: also called CDRH3 G97>A
As for B18, binding was put at a Kd of 0.486 nM.
